Consider 1 protein from FireProtDB (doi:10.1021/bi034371e).

“And” between values parts separate entries of the source, which are not always exact repeats. Equal entries are not always repeated.

The term Tm denotes the temperature at which the thermal transition is half complete.

For this series the following is noted: Spinacia oleracea, pH 7, Thermal, whole UniProt chain shown.
[1] abbreviates: DSC, potassium phosphate 10 mM, reversible: No.
The mark [2] stands for this setting: DSC, potassium phosphate 10 mM, reversible: Yes, 90%.
The mark [3] stands for this setting: DSC, potassium phosphate 10 mM, reversible: Yes.
[4] abbreviates: NMR, phosphate 10 mM, reversible: No.

B1: Plastocyanin, chloroplastic wild type, P00289 (protein)
chain: MATVASSAAVAVPSFTGLKASGSIKPTTAKIIPTTTAVPRLSVKASLKNVGAAVVATAAAGLLAGNAMAVEVLLGGGDGSLAFLPGDFSVASGEEIVFKNNAGFPHNVVFDEDEIPSGVDAAKISMSEEDLLNAPGETYKVTLTEKGTYKFYCSPHQGAGMVGKVTVN
With B1, the Tm is 67.8 °C and 67.2 °C under setting [1]; 71 °C under setting [2]; 71.2 °C under setting [3]; 67.9 °C under setting [4]. The “unfolding enthalpy (van 't Hoff)” value under setting [1] is 84.6 kcal/mol and 84.1 kcal/mol; the “unfolding enthalpy (van 't Hoff)” value under setting [2] came to 85.6 kcal/mol; the “unfolding enthalpy (van 't Hoff)” value under setting [3] is 82 kcal/mol; the “unfolding enthalpy (van 't Hoff)” value under setting [4] came to 115 kcal/mol. In addition, the “unfolding enthalpy (calorimetric)” value under setting [3] was 118 kcal/mol.
